Reference: article PMC4048344 (Channels, 2014)

Key:
[1] = target: MBP-tagged SK2-ARK C-terminus (aa 368-553) (chicken); experiment: pull-down
[2] = target: chicken SK2-ARK splice variant, full length, expressed in Xenopus oocytes (chicken); experiment: co-IP
[3] = target: MBP-tagged SK2 C-terminus (aa 368-553) (chicken, UniProt Q9PTS9 368-553); experiment: pull-down
[4] = target: chicken SK2 (isoform lacking the ARK insert), full length, expressed in Xenopus oocytes (chicken, UniProt Q9PTS9 1-553); experiment: co-IP

GST-tagged full-length human α-actinin-1 (from UniProt P12814-3 1-914) (natural protein)
bound α-actinin-1, percent of that bound to SK2 [1]: 81.2 % of SK2
fold increase in binding with 1 mM CaCl2 against 5 mM BAPTA [1]: 6.8 fold

HA-tagged α9/10-nicotinic acetylcholine receptor (chicken α9 and α10-HA subunits) (from UniProt Q9PTS8 28-484; Q9I8C7 27-452) (complex)
co-precipitated α9/10-nAChRs, percent of that with SK2 [2]: 173 % of SK2

calmodulin, purified from bovine brain (from UniProt P62157 1-149) (natural protein)
co-precipitated CaM with 5 mM BAPTA, percent of that with SK2 [1]: 142 % of SK2

B1: GST-tagged full-length human α-actinin-1 (natural protein, UniProt P12814-3 1-914, looked up)
chain: MDHYDSQQTNDYMQPEEDWDRDLLLDPAWEKQQRKTFTAWCNSHLRKAGTQIENIEEDFRDGLKLMLLLEVISGERLAKPERGKMRVHKISNVNKALDFIASKGVKLVSIGAEEIVDGNVKMTLGMIWTIILRFAIQDISVEETSAKEGLLLWCQRKTAPYKNVNIQNFHISWKDGLGFCALIHRHRPELIDYGKLRKDDPLTNLNTAFDVAEKYLDIPKMLDAEDIVGTARPDEKAIMTYVSSFYHAFSGAQKAETAANRICKVLAVNQENEQLMEDYEKLASDLLEWIRRTIPWLENRVPENTMHAMQQKLEDFRDYRRLHKPPKVQEKCQLEINFNTLQTKLRLSNRPAFMPSEGRMVSDINNAWGCLEQVEKGYEEWLLNEIRRLERLDHLAEKFRQKASIHEAWTDGKEAMLRQKDYETATLSEIKALLKKHEAFESDLAAHQDRVEQIAAIAQELNELDYYDSPSVNARCQKICDQWDNLGALTQKRREALERTEKLLETIDQLYLEYAKRAAPFNNWMEGAMEDLQDTFIVHTIEEIQGLTTAHEQFKATLPDADKERLAILGIHNEVSKIVQTYHVNMAGTNPYTTITPQEINGKWDHVRQLVPRRDQALTEEHARQQHNERLRKQFGAQANVIGPWIQTKMEEIGRISIEMHGTLEDQLSHLRQYEKSIVNYKPKIDQLEGDHQLIQEALIFDNKHTNYTMEHIRVGWEQLLTTIARTINEVENQILTRDAKGISQEQMNEFRASFNHFDRDHSGTLGPEEFKACLISLGYDIGNDPQKKTGMMDTDDFRACLISMGYNMGEAEFARIMSIVDPNRLGVVTFQAFIDFMSRETADTDTADQVMASFKILAGDKNYITMDELRRELPPDQAEYCIARMAPYTGPDSVPGALDYMSFSTALYGESDL
fold increase in binding with 1 mM CaCl2 against 5 mM BAPTA [3]: 3.2 fold

B2: HA-tagged α9/10-nicotinic acetylcholine receptor (chicken α9 and α10-HA subunits) (complex)
chain 1: AKGKYAQMLFNELFEDYSNALRPVEDTDKVLNVTLQITLSQIKDMDERNQILTAYLWIRQSWYDAYLKWDKDKYDGLDSIRIPSNLVWRPDIVLYNKADDDFSEPVNTNVVLRYDGKITWDAPAITKSSCVVDVSYFPFDSQQCNLTFGSWTYNGNQVDIINSLDSGDLSDFVEDVEWEIHGMPAVKNVITYGCCSEPYPDVTFTLILKRKSSFYIFNLLLPCILISFLAPLGFYLPADSGEKVSLGVTVLLALTVFQLMVAEIMPPSENVPLIGKYYIATMTMITASTALTIIIMNVHHCGSEAKPVPQWARVVILDYMSKIFFVYDVGENCTSPRREKEQEHRLEGGDMCRGGDGKSHLSSRNDDSDLKENLNGNWNKSFGVHGENVRENVNCCSCYKMLIKNIEYIANCVRDHKANRAKGIEWKKVAKVMDRFFMWIFFIMVFFMSVLIIGKAA
chain 2: AQGRLAHKLLHDLFANYSSALRPAEDTERALNVTLQVTLSQIIDMDERNQVLTSYLWVRQAWLDAHLAWDKDAYGGIDSIRIPSSYVWRPDIVLYNNADERFGGSMETNVVLRSDGHIMWDSPAITKSSCKVDVSYFPFDGQQCRLTFGSWTYNGNQIDLRNLLDTGDLTDFVENVEWEVLGMPATRNVVTYGCCSEPYPDVTYTLLLRRRASFYIFNLLLPCVMISFLAPLGFYLPADSGEKVSLGVTVLLALTVFQLLVAESMPPSESVPLIGKYYIATMTMITASTALTIFIMNIHHCGPGARPVPPWARRLILHHLARALCVCEVGESCGRPQREGTGGMGPRDPPGEGVEPGLCPRSRCLCHHHAVLSSVGYIAGVFRRHRTAQRRAAEWKKVAKVMDRFFMWVFFLMVFLMSVLVIGKAA
fold change of co-precipitation after BAPTA-AM [4]: 2 fold
